The record followed here is patent US20240190950A1, “METHOD OF TREATING DISEASES USING GREMLIN1 ANTAGONISTS” (SHANGHAI JIAO TONG UNIVERSITY, priority 2021, published 2024).

Test [1] has as its system FGFR1/MEK/ERK signaling pathway. The test is described as follows: FGFR1/MEK/ERK phosphorylation in PCa cell lines (immunoblotting). The test is classed as cell-based, human. The procedure:
In order to test whether Gremlin1 promoted the FGFR-MAPK signaling, we first performed analysis of the expression levels of the four FGFRs in CRPC patients. […] We treated LNCaP and PC3 with GREM1 in different concentrations (1 ng/ml, 10 ng/ml, 100 ng/ml) and examined phosphorylation levels of FGFR1, MEK and ERK.
(§1) MAPK signaling can be activated through many membrane receptors besides FGFR. To test whether the activation of MAPK pathway by GREM1 was via FGFR, we constructed a FGFR1 knockout LNCaP subline by the CRISPR/Cas9 method. […] To further test whether the tumor promoting effect of GREM1 was through FGFR, we utilized small molecule inhibitors of FGFR or EGFR.
14E3 was tested to target GREM1 in human PCa.

In another test the test system is LNCaP cells. The test is described as follows: GREM1-promoted PCa cell proliferation and sphere formation with FGFR1/MEK inhibitors or BMP4. The test is classed as cell-based, human.
Excerpt: as §1

In another test the target is FGFR1 (Homo sapiens, UniProt P11362). The test is described as follows: ELISA binding of DAN family proteins to FGFR1.
Another test deals with PC3 cells. Description: Sphere formation, proliferation and apoptosis of PC3 cells. The format is cell-based, human. The conditions noted are these: 100 ng/ml GREM1 protein in culture medium. The source says: Metastatic prostate cancer is a devastating disease and most cancers progress upon serial treatments with either androgen receptor antagonist or chemotherapy. One of the key cell types resistant to these treatments are cells with stem cells like property which has the capability of forming tumor spheres in suspension culture. To explore the role of GREM1 in the progression of CRPC, we utilized AR independent CRPC cell line PC3, as well as the AR dependent PCa cell line LNCaP and LAPC4. We generated cell sublines with loss or gain of GREM1 expression (FIGS. 3A, 4A and 5A).
14E3 was tested to target GREM1 in human PCa. The affinity and specificity of this antibody to hGREM1 was verified by ELISA (FIG. 12A). […] This antibody potentiated the anti-tumor effect of Enzalutamide in AR dependent LNCaP cells (FIG. 12B, 12C, 10K, 10L).

The next test has as its system PC-3 cells. The test is described as follows: Scratch migration assay of PC-3 cells. The conditions noted are these: 1 μg/ml Gremlin, 3 days. The format is cell-based, human. On the procedure:
PC-3 cells at log-growth phase were harvested and re-suspended in cell culture medium (DMEM medium supplied with 10% FBS). Cells were non-treated or treated with 1 μg/ml Gremlin or 10 μg/ml 14E3 or 10 μg/ml control mIgG2a for 3 days. Then cells were planted at 10^5 cells/well in 6-well cell culture plate. After cells reached 100% coverage of the bottom of wells, the medium was changed to serum free medium. Each well was made with one scratch using 200 μl-tip. The migration rate of cells were analyzed by calculating the area of cells growing on the scratch using Image J software.

In a further test the test system is LNCaP-PSA cells. The test is described as follows: LNCaP-PSA reporter cell assay (PSA-low population, flow cytometry). Particulars: dose dependent; day 7. The test is classed as cell-based, human. The source says: In order to assess the role of gremlin1 in modulating tumor prostate cell growth, we tested the antibodies provided herein in an assay involving prostate cancer cell LNCaP. This cell line was transfected with a PSA promoter driven GFP expression lentivirus plasmid. PSA is known as a differentiated marker of prostate cell and prostate cancer cells with low level of PSA represent poorly differentiated or undifferentiated prostate cancer cells. These cells usually have stem cell like property and have more aggressive growth property. The LNCaP reporter cell assay is briefly described below.
LNCaP-PSA cells were plated in 24-well plates at 10000/well in RPMI 1640/10% FBS (GIBCO), 1% P/S (complete media) and incubated at 37° ° C. and 5% CO2 overnight. The next day, remove media, 1 ug/ml human gremlin (ACRO) or human gremlin with serially diluted antibodies were added to the cells. Change medium every three days. On day 7, remove media from the wells, wash with PBS twice, run flow cytometer (Bechman) using FITC channel.
A general note: A flow cytometer gives signals particle by particle.

Sequence of FGFR1 (P11362 3-822 limits assumed): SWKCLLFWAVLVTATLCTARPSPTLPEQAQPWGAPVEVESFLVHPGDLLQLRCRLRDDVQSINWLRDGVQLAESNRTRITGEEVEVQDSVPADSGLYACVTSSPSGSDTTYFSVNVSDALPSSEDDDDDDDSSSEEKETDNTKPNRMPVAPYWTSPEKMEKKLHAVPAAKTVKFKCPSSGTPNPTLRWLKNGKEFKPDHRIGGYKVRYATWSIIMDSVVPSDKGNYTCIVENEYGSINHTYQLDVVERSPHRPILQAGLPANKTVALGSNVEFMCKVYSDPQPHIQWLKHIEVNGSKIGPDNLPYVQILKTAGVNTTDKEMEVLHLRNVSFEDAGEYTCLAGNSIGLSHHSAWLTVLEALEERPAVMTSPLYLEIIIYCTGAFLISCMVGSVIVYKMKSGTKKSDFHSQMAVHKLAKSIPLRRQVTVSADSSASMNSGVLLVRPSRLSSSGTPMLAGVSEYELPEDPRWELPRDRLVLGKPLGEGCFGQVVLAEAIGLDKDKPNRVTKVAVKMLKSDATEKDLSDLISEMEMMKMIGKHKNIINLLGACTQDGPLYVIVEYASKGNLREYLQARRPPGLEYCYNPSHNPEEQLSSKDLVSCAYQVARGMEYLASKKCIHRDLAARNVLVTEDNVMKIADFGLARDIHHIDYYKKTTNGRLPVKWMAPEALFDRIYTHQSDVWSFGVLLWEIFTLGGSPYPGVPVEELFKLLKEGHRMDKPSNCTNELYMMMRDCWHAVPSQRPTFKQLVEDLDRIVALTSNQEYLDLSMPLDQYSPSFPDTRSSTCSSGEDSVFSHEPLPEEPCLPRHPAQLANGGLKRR

B1: BMP4: BMP ligand added to cells (protein, UniProt P12644 293-408, looked up)
Bone morphogenetic protein 4: SPKHHSQRARKKNKNCRRHSLYVDFSDVGWNDWIVAPPGYQAFYCHGDCPFPLADHLNSTNHAIVQTLVNSVNSSIPKACCVPTELSAISMLYLDEYDKVVLKNYQEMVVEGCGCR
As for B1, the “phosphorylation levels of FGFR1, MEK1/2 and ERK1/2 following GREM1 stimulation on addition of BMP4” value in test [1] (BMP4 20 ng/ml, PC3 and LNCaP-resistance cells) is “did not alter”. For the same molecule, in the test on LNCaP cells, the “proliferation promoting role of GREM1” value is recorded as “not affected” and the “sphere-formation promoting role of GREM1” value is reported as “not affected”.

B2: GREM1: gremlin1 protein, secreted BMP antagonist of the DAN family, added exogenously or immobilized (protein)
chain: KKKGSQGAIPPPDKAQHNDSEQTQSPQQPGSRNRGRGQGRGTAMPGEEVLESSQEALHVTERKYLKRDWCKTQPLKQTIHEEGCNSRTIINRFCYGQCNSFYIPRHIRKEEGSFQSCSFCKPKKFTTMMVTLNCPELQPPTKKKRVTRVKQCRCISIDLD
Regarding B2, the “binding to FGFR1” value in the test with FGFR1 is recorded as “binds”. In the test on PC3 cells, the cell proliferation result was “significant elevation” and the sphere formation result is on record as “significant elevation”. The “time MAPK activation was maintained at a high level” value in test [1] (Gremlin1 100 ng/ml, PC3 and LNCaP cells) is reported as “up to 1 hour”. Also, the “p-FGFR1, p-MEK1/2 and p-ERK1/2 levels” value in test [1] (LNCaP and PC3, 1 ng/ml, 10 ng/ml, 100 ng/ml, dose dependent) is “increase”. The “cell migration of prostate cancer cells” value with PC-3 cells is “accelerated”. For the same molecule, the “percentage of the PSA-low LNCaP population” value in the test with LNCaP-PSA cells is on record as “increased”.
